Laboratory results reported in the RNAGym collection of RNA variant scans (doi:10.7554/elife.90254).

B1: LINE1-full (parent)
chain: UACGUAGGUGGUUUUCCCCUGAUAGUGCUAAGGGGGCCUGGAAGUUUGGACUGGGCAGAGCUCAACACAGCGUGGCAAAGUGGCUGUGGCUAGACUGCCUCUCUGGAUUCCUCGUCACUCAGCAGGGCAUCUCUGAGAGAAAUGCC

Variants of: B1
Assay: self-cleavage, relative activity (ratio to wild type); higher = more cleavage; in vitro, sequencing; the parent is a self-cleaving ribozyme

Row | Variant | self-cleavage
1 | U1A A2G | 1.2
2 | U1A A22U | 0.41
3 | U1A A30C | 1.44
4 | U1A A31U | 1.11
5 | U1A A43G | 0.81
6 | U1A A59U | 0.91
7 | U1A A65G | 0.07
8 | U1A A69G | 1.2
9 | U1A A77G | 1.66
10 | U1A A78C | 1.65
11 | U1A A78G | 0.86
12 | U1A A92U | 0.32
13 | U1A A117G | 1.37
14 | U1A A121G | 1.73
15 | U1A A124G | 1.16
16 | U1A A129G | 1.47
17 | U1A A136G | 1.71
18 | U1A A141G | 1.43
19 | U1A A142G | 1.19
20 | U1A C3U | 0
21 | U1A C37G | 0.74
22 | U1A G33U | 0.96
23 | U1A G34C | 1.08
24 | U1A G54A | 1.05

Row | Variant | self-cleavage
25 | U1A G72A | 1.55
26 | U1A U9A | 1.15
27 | U1A U12C | 1.4
28 | U1A U14A | 0.89
29 | U1A U14C | 1.71
30 | U1A U15C | 2.17
31 | U1A U20C | 1.64
32 | U1A U26G | 1.19
33 | U1A U29C | 0.84
34 | U1A U39C | 1.2
35 | U1A U62G | 0.36
36 | U1A U87A | 0.13
37 | U1A U100C | 1.18
38 | U1A U109A | 1.56
39 | U1A U109C | 1.05
40 | U1A U112A | 1.2
41 | U1A U115A | 1.1
42 | U1A U115C | 1.3
43 | U1A U119C | 1.73
44 | U1A U132A | 1.35
45 | U1C A24U | 1.2
46 | U1C A31U | 0.61
47 | U1C A42G | 0.92
48 | U1C A43C | 0.37

Row | Variant | self-cleavage
49 | U1C A43G | 0.79
50 | U1C A43U | 0.75
51 | U1C A57U | 0.09
52 | U1C A59G | 0.1
53 | U1C A59U | 0.56
54 | U1C A64G | 0.2
55 | U1C A64U | 0.29
56 | U1C A67C | 0.09
57 | U1C A77C | 1.02
58 | U1C A78C | 1.46
59 | U1C A78G | 1.38
60 | U1C A79U | 2.16
61 | U1C A92G | 0.14
62 | U1C A117G | 0.73
63 | U1C A117U | 0.89
64 | U1C A124U | 1.07
65 | U1C A136G | 1.08
66 | U1C A138U | 0.57
67 | U1C A141G | 0.97
68 | U1C A141U | 0.71
69 | U1C C17U | 0.87
70 | U1C C51U | 0.71
71 | U1C C63U | 0.24
72 | U1C C68U | 0.13

Row | Variant | self-cleavage
73 | U1C C76U | 1.56
74 | U1C C90A | 0
75 | U1C C98U | 0.13
76 | U1C C116A | 1.42
77 | U1C C133U | 1.16
78 | U1C C146U | 1.08
79 | U1C G4A | 0.46
80 | U1C G7U | 0.75
81 | U1C G8A | 0.49
82 | U1C G32U | 0.21
83 | U1C G34U | 0.68
84 | U1C G36A | 1.06
85 | U1C G41A | 0.52
86 | U1C G48A | 0.9
87 | U1C G83U | 0.25
88 | U1C G89U | 0
89 | U1C G105A | 0.12
90 | U1C G106A | 0.73
91 | U1C G139U | 0.74
92 | U1C G144A | 0.72
93 | U1C U5C | 0.87
94 | U1C U9A | 0.75
95 | U1C U12A | 0.95
96 | U1C U13A | 0.69

Row | Variant | self-cleavage
97 | U1C U13C | 0.62
98 | U1C U14G | 0.36
99 | U1C U15A | 0.81
100 | U1C U20C | 0.79
101 | U1C U23A | 0.56
102 | U1C U23C | 0.98
103 | U1C U26C | 0.64
104 | U1C U26G | 0.72
105 | U1C U29G | 1.45
106 | U1C U39A | 0.75
107 | U1C U45C | 0.91
108 | U1C U45G | 0.48
109 | U1C U46A | 0.43
110 | U1C U46C | 1.11
111 | U1C U52C | 1.38
112 | U1C U52G | 1.33
113 | U1C U73C | 1.04
114 | U1C U73G | 1.53
115 | U1C U81A | 1.64
116 | U1C U85C | 0.2
117 | U1C U87A | 0.23
118 | U1C U96A | 0.09
119 | U1C U96C | 0.12
120 | U1C U100A | 0.69

Row | Variant | self-cleavage
121 | U1C U102C | 1.03
122 | U1C U104A | 0.75
123 | U1C U104C | 0.68
124 | U1C U115A | 0.98
125 | U1C U119C | 0.78
126 | U1C U130C | 1.04
127 | U1C U132C | 0.97
128 | U1C U134C | 0.38
129 | U1C U143A | 1.35
130 | U1G A78G | 1.25
131 | U1G G114C | 0.52
132 | U1G U12C | 0.64
133 | U1G U13G | 1.14
134 | U1G U39C | 0.72
135 | U1G U46G | 0.33
136 | U1G U96C | 0.87
137 | U1G U100C | 1.1
138 | A2C | 1.24
139 | A2C A31G | 1.34
140 | A2C A57U | 0.11
141 | A2C A65U | 0.17
142 | A2C A107G | 1.15
143 | A2C A121G | 0.95
144 | A2C A138G | 2.07

Row | Variant | self-cleavage
145 | A2C A141G | 0.9
146 | A2C C17G | 1.03
147 | A2C C56U | 0.11
148 | A2C U26C | 1.05
149 | A2C U39A | 1.3
150 | A2C U62C | 0.11
151 | A2G | 0.85
152 | A2G A6G | 0.68
153 | A2G A24G | 0.71
154 | A2G A30U | 0.85
155 | A2G A42G | 0.72
156 | A2G A42U | 0.69
157 | A2G A43U | 1.34
158 | A2G A57G | 0.68
159 | A2G A59G | 0.39
160 | A2G A69G | 0.32
161 | A2G A69U | 0.15
162 | A2G A77G | 1.36
163 | A2G A78G | 1.04
164 | A2G A92C | 0.13
165 | A2G A92G | 0
166 | A2G A94C | 0.29
167 | A2G A117U | 1
